Tests used:
[1] = target: T1, truncated wild type EGFR 1-525 (EGFR1 (1-525)-SRGPF-Myc-NMHTG-6His) (human, UniProt P00533 25-525); test: SPR (Biacore T100)
T1 construct: the signal peptide is left out; not shown: Myc tag

[2] = target: T2, EGFRvIII extracellular domain (EGFR (1-29)-G-(298-645)-LESRGPF-Myc-NMHTG-6His) (human, UniProt P00533 298-641); test: SPR (Biacore T100)
T2 construct: also called recombinant EGFRvIII; not shown: Myc tag

[3] = target: T1, truncated wild type EGFR 1-525 (EGFR1 …); test: SPR (Biacore), antibody captured via anti-human Fc, antigen injected
Experimental: (§1) Biacore analysis was performed using a Biacore T100 with a CM5 sensory chip, and test antibodies were captured via anti-human Fc antibodies that were amino coupled to the chip using a standard amine coupling kit according to manufacturer's instructions (GE healthcare). Briefly, a CM5 chip surface was activated with EDC/NHS. Goat anti-human Fc specific polyclonal antibody (Thermo Fisher Scientific Inc., Rockford, Ill.) was diluted to 25 μg/mL in 10 mM sodium acetate (pH 4.5) and injected over the activated surface to achieve immobilization. Unreacted moieties on the biosensor surface were blocked with ethanolamine. The Biacore T100 is a surface plasmon resonance based biosensor for detecting, characterizing and quantifying bimolecular interactions, including the interactions between an antibody and its antigen. Antigen was injected at 80 μL/minute for 3 minutes and dissociation was followed for 15 minutes.

[4] = target: T2, EGFRvIII extracellular domain (EGFR …); test: as above
Experimental: as §1

EGFRvIII on U87MG cells = target: T3, EGFRvIII on U87MG cells (human, UniProt P00533 298-1210); test: competition FACS on U87MG de2-7 cells expressing EGFRvIII; competitor Ab1-FITC at 100 nM
T3 construct: also called de2-7 EGFR

[5] = target: T4, wild type human EGFR on cells (A431, NHEK, SCC-15, H292) (human, UniProt P00533 25-1210); test: FACS binding to normal human epidermal keratinocytes (NHEK), AlexaFluor 488 secondary antibody
T4 construct: Endogenous receptor of human cell lines and keratinocytes said to express wild type EGFR; also called wild type EGFR; wtEGFR
Experimental: NHEK cells express wild type EGFR.
Cells were harvested when approximately 80% confluent using trypsin, neutralized and washed once in PBS/1% FBS (FACS buffer) then resuspended at 2.5×10⁶ cells/mL in FACS buffer. 100 μL of cells/well were added to a round bottom 96-well plate. 10 μL of a 10x concentration of Ab (final concentrations are listed in the Figures) was added and plate was incubated at 4° C. for one hour. Wells were washed twice with FACS buffer then resuspended in 50 μL of secondary Ab (AlexaFluor 488) diluted in FACS buffer. The plate was incubated at 4° C. for one hour then washed twice with FACS buffer. Cells were then resuspended in 100 μL of PBS/1% formaldehyde and analyzed on a Becton Dickinson LSRII flow cytometer. Data was analyzed using WinList flow cytometry analysis software.

[6] = target: T4, wild type human EGFR on cells (A431, …); test: cell-based or functional assay
[7] = target: T1, truncated wild type EGFR 1-525 (EGFR1 …); test: SPR (summary of FIG. 6)

| fold increase in affinity relative to Ab1 [1] | fold increase in binding relative to Ab1 [2] | Kd [3] | koff [3] | kon [3] | KD ratio (Ab1/variant Ab) [4] | Kd [4] | koff [4] | kon [4] | IC50 (read off the curve) (EGFRvIII on U87MG cells) | EC50 (read off the curve) [5] | IC50 of inhibition of EGFR signaling in A431 cells (phospho-EGFR ELISA) [6] | koff [7] | KD ratio (Ab1/variant Ab) [3] | fold increase in affinity relative to Ab1 [2] | Binder |
| --- | --- | --- | --- | --- | --- | --- | --- | --- | --- | --- | --- | --- | --- | --- | --- |
| 263 fold | > 47 fold | 8.6 nM | 5.88e-05 s⁻¹ | 6800 M⁻¹ s⁻¹ | 47.2 | 0.2 nM | 7.44e-05 s⁻¹ | 374000 M⁻¹ s⁻¹ | ~20 nM | ~40 nM | – | – | – | – | Antibody G (AbG) (antibody, V domains shown, Full length IgG1) VH: EVQLQESGPGLVKPSQTLSLTCTVSGYSISNDFAWNWIRQLPGKGLEWMGYISYKGNTRYQPSLKSRITISRDTSKNQFFLKLNSVTAADTATYYCVTASRGLPYWGQGTLVTVSS VL: DIQMTQSPSSMSVSVGDRVTITCHSSQDITYNIGWLQQKPGKSFKGLIYHGANLDDGVPSRFSGSGSGTDYTLTISSLQPEDFATYYCVQYDEFPWTFGGGTKLEIK |
| – | – | 21 nM | 7.67e-05 s⁻¹ | 3580 M⁻¹ s⁻¹ | 8.2 | 1.2 nM | 0.000135 s⁻¹ | 117000 M⁻¹ s⁻¹ | ~30 nM | ~30 nM | > 40 nM | < 0.0001 s⁻¹ | 106 | – | Antibody P (AbP) (antibody, V domains shown, Full length IgG1) VH: EVQLQESGPGLVKPSQTLSLTCTVSGYSISHDFAWNWIRQPPGKGLEWMGYISYSGNTRYQPSLKSRITISRDTSKNQFFLKLNSVTAADTATYYCVTASWGLPWWGQGTLVTVSS VL: DIQMTQSPSSMSVSVGDRVTITCHSSQDINMNVGWLQQKPGKSFKGLIYHGAILDDGVPSRFSGSGSGTDYTLTISSLQPEDFATYYCVQYAEFPWTFGGGTKLEIK |
| – | – | 3.9 nM | 2.05e-05 s⁻¹ | 5250 M⁻¹ s⁻¹ | 35.2 | 0.27 nM | 5.22e-05 s⁻¹ | 196000 M⁻¹ s⁻¹ | – | – | – | – | 582 | 63 fold | Antibody O (AbO) (antibody, V domains shown, Full length IgG1; also called Antibody 0) VH: EVQLQESGPGLVKPSQTLSLTCTVSGYSIGKDFAWNWIRQPPGKGLEWMGYISYNGNTRYQPSLKSRITISRDTSKNQFFLKLNSVTAADTATYYCVTASRGFPYWGQGTLVTVSS VL: DIQMTQSPSSMSVSVGDRVTITCHSSQDITYNVGWLQQKPGKSFKGLIYHGSNLDHGVPSRFSGSGSGTDYTLTISSLQPEDFATYYCVQYDDFPWTFGGGTKLEIK |

— patent publication US20150337042A1 (AbbVie / Abbott, published 2015)
